pEC50: −log10 of the molar value.
Assays:
[1] = system: rat brain microvascular endothelial cell model; experiment: in vitro BBB model, transcytosis of peptide-AP fusions; assay type: cell-based; conditions: 25 μg peptide-AP fusion in top chamber, detected in bottom chamber at 15 and 30 minute by ELISA
Method: Select sIGF1R binding peptides were further characterized in the in vitro blood-brain barrier model, rat brain microvascular endothelial cell model.
Rat Brain capillary endothelial cells were prepared as described (Perriere et al., J. Neurochem. 93:279-289, 2005). Briefly, brains from 6-8 week old male Sprague Dawley rats were rolled on 3 MM chromatography paper to remove the meniges, cut sagitally, and the white matter dissected leaving the cortices, which were then minced thoroughly. The minced cortices were transferred to a 50 ml polypropylene conical tube with 20 ml DMEM supplemented with 39 units/ml DNase I (Worthington, Lakewood, N.J.) and 0.7 mg/ml Collagenase type 2 (Worthington, Lakewood, N.J.) at final concentration and incubated at 37° C. with gentle mixing for 1.25 hrs. After a brief centrifugation the resultant pellet was resuspended in 20 ml 20% BSA (Sigma, St. Louis, Mo.) in DMEM, centrifuged and the microvessel enriched pellet was isolated a digested a second time with 20 ml DMEM supplemented with 39 units/ml DNase 1 and 1 mg/ml Collagenase/Dispase (Roche, Indianapolis, Ind.) at 37° C. for 1 hr. The digestion was briefly centrifuged and the resulting cell pellet was resuspended in 2 ml DMEM and subsequently layered onto the top of a 33% continuous Percoll gradient, centrifuged, and the enriched microvessel fraction was removed and briefly centrifuged a second time. The cell pellet was resuspended in 10 ml complete rat brain microvascular endothelial cell growth media (DMEM, 20% Plasma Derived Serum (PDS), 100 μg/ml Heparin, 2 mM L-Glutamine, 100 U/ml penicillin, 100 μg/ml streptomycin, 0.25 μg/ml amphotericin) and plated onto a 10 cm tissue culture dish for 4 hrs at 37° C., 5% CO2. After 4 hrs cells that remained unattached were pipetted off and counted in a hemacytometer using Trypan Blue. The cells were plated into the top chamber of the Transwells (0.4 μm pore size, diameter 1.12 cm, Corning, Acton, Mass.) treated with 400 μg/ml collagen type IV (Sigma, St. Louis, Mo.) and 100 μg/ml fibronectin (Sigma, St. Louis, Mo.) at a density of 6×10^5 cells/ml, 500 μl per well. 1 ml of growth media was placed into the bottom chamber. Both chambers were supplemented with 4 μg/ml puromycin (Clontech, Mountain View, Calif.) and the plates were incubated at 37° C., 5% CO2 overnight. The next day the media was changed with fresh complete culture media with 4 μg/ml puromycin and the cells were placed back into the incubator overnight. The next day the media was changed with complete culture media and again two days after. Cultures were monitored by eye till they reached 100% confluence, ˜6-7 days after seeding. The developed in vitro BBB model had high transendothelial electrical resistance (>100 ohms-cm^2), measured using Millicell-ERS (Millipore, Billercia, Mass.) and very low Na-Fluorescein permeability (about 1-5×10^−6 cm/s).
25 μg of purified peptide-AP fusions were added to the top chamber of the in vitro BBB model and transcytosed peptide-AP fusions were detected at 15 and 30 minute timepoints in the bottom chamber using ELISA. Briefly, 75 μl of each sample was transferred to plates coated with 5 μg/ml mouse monoclonal anti-bacterial AP antibody (Sigma, St. Louis, Mo.). The plate was incubated for 1 hr, washed, the signal was developed with Attophos Substrate (Roche, Indianapolis, Ind.) according to manufacturer's recommendation, and read using a Molecular Devices M5 plate reader with 440 nm excitation and 550 nm emission.

insulin receptor = insulin receptor (Homo sapiens, UniProt P06213); experiment: phage lysate binding to insulin receptor (cross-reactivity)
Method: Total of 384 individual phage lysates from the panning were tested for binding specificity towards sIGF1R in a solid phase phage ELISA. Briefly, 100 μl/well of 5 μg/ml sIGF1R (R&D Systems, Minneapolis, Minn.) was bound to Black Maxisorp Plates (Nunc, Rochester, N.Y.), 25 μl of phage lysate added, and the reaction was detected using anti-M13-HRP antibody (EMD Biosciences, Gibbstown, N.J.) and POD substrate (Roche, Indianapolis, Ind.), and the signal detected using a TEKAN plate reader. […] Positive lysates were defined as clones with a sIGF1R specific signal that was three fold above the background of the negative control. A total of 13 clones with unique peptide sequences were obtained with confirmed binding to the sIGF1R (Table 1). From these 13 clones, 3 (clones 5, 13 and 16) cross-reacted with the insulin receptor.

sIGF1R [2] = target: T1, sIGF1R (Homo sapiens, UniProt P08069); experiment: ELISA relative binding affinity of PG-peptide fusions for sIGF1R; conditions: for pEC50: PG-peptide fusion, ELISA on 2 μg/ml coated sIGF1R, one site binding equation
T1 construct: hexahistidine (C); purchased R&D Systems
Text: The identified IFG1R binding peptides were cloned in-frame to the C-terminus of the protein G IgG domain (PG) in a modified pET17b vector (EMD Chemicals, Gibbstown, N.J.) having a ligation independent cloning site (LIC) to generate PG-peptide fusions. The IgG binding domain of protein G is stable and thus enabled easy purification of the fusion protein from bacterial lysates. The amino acid sequence of the protein G IgG domain used is shown in SEQ ID NO: 31. The PG-peptide fusions were expressed in bacteria upon 1 mM IPTG induction and purified using IgG Sepharose beads (GE Healthcare Life Sciences, Piscataway, N.J.) from the bacterial lysates cleared by centrifugation at 16,000 g, 4° C. for 20 min.
(§1) Relative binding affinities of the PG-peptide fusions for sIGF1R were measured using ELISA. The Kds were determined using GraphPad Prism 4 software with a one site binding equation. 100 μl of 2 μg/ml sIGF1R(R&D Systems, Minneapolis, Minn.) in Dulbecco's Phosphate Buffer Saline (DPBS (−/−)) was coated onto a 96 well Black Maxisorp plates (Nunc, Rochester, N.Y.) overnight at 4° C. The plates were washed with TBST and the wells blocked with 200 μl/well Starting Block T20 (TBS) (Pierce, Rockford, Ill.) for 1 hr, room temperature with 300 rpm shaking. 75 μl/well of purified, serially diluted PG-peptide fusions, starting concentration 40 μM, was added into the wells and incubated for 1 h, room temperature with 300 rpm mixing; the volume was brought up to 100 μl with Starting Block T20. The plates were washed 3× with TBST and then probed with 100 μl/well Peroxidase labeled-Rabbit antibody (1:5000) (Rockland, Gilbertsville, Pa.), washed, and the signal was detected using 100 μl/well POD substrate (Roche, Indianapolis, Ind.). Chemiluminescence was detected using a Molecular Devices M5 plate reader.

sIGF1R [3] = target: T1, sIGF1R; experiment: competition ELISA of PG-peptide fusions with IGF-1 on sIGF1R; assay type: binding; conditions: PG-peptide fusion, IGF-1 400 nM final
Method: as §1
For competition assays, insulin-like growth factor 1 (IGF-1) (R&D Systems, Minneapolis, Minn.) was added to the Starting Block T20 used to bring the volume up to 100 μl at a concentration of 400 nM final.

Row | Substance | cross-reaction with the insulin receptor (insulin receptor) | pEC50 (sIGF1R [2]) | Competed by IGF-1 (sIGF1R [3]) | binding curve shape (binding profile) (sIGF1R [2]; PG-peptide fusion on sIGF1R) | Transcytosis [1]
1 | 5 (TGCDFPELCRGCHP; IGF1R binding peptide from pIX library) [Clone 5] | cross-reacted | 6.12 |  |  | yes
2 | 6 (AECEWPWLTLELCQS; IGF1R binding peptide from pIX library) [Clone 6] |  | 6.00 |  |  | yes
3 | 7 (PFCYSGGPLPYPCTY; IGF1R binding peptide from pIX library) [Clone 7] |  | 5.74 |  |  | 
4 | 9 (FTCAVYSLSELDCRD; IGF1R binding peptide from pIX library) [Clone 9] |  | 5.46 |  |  | no
5 | 11 (HTCFYPTLMPPELCFD; IGF1R binding peptide from pIX library) [Clone 11] |  | 5.92 | yes |  | no
6 | 12 (SNCPPLDMRLTELCVM; IGF1R binding peptide from pIX library) [Clone 12] |  | 5.74 |  |  | yes

Continued, in another order:

Row | cross-reaction with the insulin receptor (insulin receptor) | pEC50 (sIGF1R [2]) | Competed by IGF-1 (sIGF1R [3]) | binding curve shape (binding profile) (sIGF1R [2]; PG-peptide fusion on sIGF1R) | Substance | Transcytosis [1]
7 |  | 5.80 |  |  | 8 (PVCPSFCYDQYVCPT; IGF1R binding peptide from pIX library) [Clone 8] | yes
8 |  | 5.37 |  |  | 10 (LSCYDPTLRTLYCHV; IGF1R binding peptide from pIX library) [Clone 10] | 
9 | cross-reacted | < 4.30 | yes |  | 13 (WHCTPLTQIADPGSIIHILECTV; IGF1R binding peptide from pIX library) [Clone 13] | no
10 |  | 6.07 | yes |  | 14 (VECDTPSITFSPGLEALFWNTCSP; IGF1R binding peptide from pIX library) [Clone 14] | no
11 |  | 5.59 |  |  | 15 (MTCAWHTLHTDPGLTPQLTLPCIY; IGF1R binding peptide from pIX library) [Clone 15] | 
12 | cross-reacted | 5.09 | yes |  | 16 (AGCPSPMPPVDPGFYSAIVQLCRE; IGF1R binding peptide from pIX library) [Clone 16] | yes
13 |  |  | yes | bellshaped | 17 (DDIDEFLHQLHNLVNNVH; IGF1R binding peptide from pIX library) [Clone 17] | no
